Source: patent US20240052061A1 (published 2024)

T1: human ecto-nucleoside triphosphate diphosphohydrolase-3 (NTPDase3) (human, UniProt O75355 1-529)
T1 chain: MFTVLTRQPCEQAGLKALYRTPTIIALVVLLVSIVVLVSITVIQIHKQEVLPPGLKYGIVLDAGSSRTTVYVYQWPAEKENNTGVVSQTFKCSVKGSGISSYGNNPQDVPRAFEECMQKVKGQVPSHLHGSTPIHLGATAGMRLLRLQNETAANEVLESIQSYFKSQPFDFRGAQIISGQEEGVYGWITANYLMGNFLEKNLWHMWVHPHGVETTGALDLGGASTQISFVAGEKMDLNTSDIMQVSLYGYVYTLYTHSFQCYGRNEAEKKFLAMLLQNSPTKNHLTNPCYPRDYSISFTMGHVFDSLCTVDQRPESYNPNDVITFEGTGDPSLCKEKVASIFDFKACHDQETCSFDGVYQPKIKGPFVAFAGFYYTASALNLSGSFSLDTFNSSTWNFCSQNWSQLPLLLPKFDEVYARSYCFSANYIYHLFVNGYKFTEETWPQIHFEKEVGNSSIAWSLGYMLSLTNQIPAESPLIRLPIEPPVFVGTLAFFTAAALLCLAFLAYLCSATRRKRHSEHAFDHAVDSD


Columns and labels:
[1] = target: T1, human ecto-nucleoside triphosphate …; test: flow cytometry; COS7-hENTPD3 cells
[2] = target: T1, human ecto-nucleoside triphosphate …; test: flow cytometry; HEK293T-hENTPD3 cells
[3] = target: T1, human ecto-nucleoside triphosphate …; test: flow cytometry; CHO-hENTPD3 cells, 2h at 37°C
[4] = target: T1, human ecto-nucleoside triphosphate …; test: flow cytometry; HEK293T-hENTPD3 cells
[5] = target: T1, human ecto-nucleoside triphosphate …; test: flow cytometry; CHO-hENTPD3 cells, 20 min at 4°C
[6] = target: T1, human ecto-nucleoside triphosphate …; test: flow cytometry; CHO-hENTPD3 cells
[7] = target: T1, human ecto-nucleoside triphosphate …; test: flow cytometry; CHO-hENTPD3 cells
[8] = target: T1, human ecto-nucleoside triphosphate …; test: flow cytometry; COS7-hENTPD3 cells
[9] = target: T1, human ecto-nucleoside triphosphate …; test: flow cytometry; COS7-hENTPD3 cells
[10] = target: T1, human ecto-nucleoside triphosphate …; test: flow cytometry; CHO-hENTPD3 cells
[11] = target: T1, human ecto-nucleoside triphosphate …; test: flow cytometry; RT4 cells
[12] = target: T1, human ecto-nucleoside triphosphate …; test: flow cytometry; CHO-hENTPD3 cells
[13] = target: T1, human ecto-nucleoside triphosphate …; test: flow cytometry; COS7-hENTPD3 cells
[14] = target: T1, human ecto-nucleoside triphosphate …; test: flow cytometry; HEK293T-hENTPD3 cells
r3E9 = test: flow cytometry; RT4 cells; rabbit mAb

Row | Binder | Kd [1] [nM] | Kd [2] [nM] | Kd [3] [nM] | Kd [4] [nM] | Kd [5] [nM] | Kd [6] [nM] | Kd [7] [nM] | Kd [8] [nM] | Kd [9] [nM] | Kd [10] [nM] | further results
1 | 38D5 Hu/Ra (antibody, V domains shown) VH: QELVESGGGLVQPGGSLKLSCKASGIDFNNYGISWVRQAPGKGLEWIAYKYPGFGIRNYANSVKGRFTISSDNAQNTVFLQMTSLAASDTATYFCARGARYRHDDYGALNLWGPGTLVTVSS VL: DIVMTQTPPSVSAAVGGTVTINCQASQSVTNLLAWYQQKPGQPPKLLIYGASNLESGVPSRFRGSGSGTEFTLTISGMKAEDAATYYCQSGYYSANTFGAGTKVGIKR | 0.96 | 6.56 | 2.54 | 2.22 | 22.3 | 1.11 | 26.6 | 1.93 | – | – | –
2 | 38D5 hIgG1 (antibody, V domains shown) VH: EQQLLESGGGLVQPGGSLRLSCAASGIDFNNYGISWVRQAPGKGLEWIAYKYPGFGIRNYANSVKGRFTISSDNSKNTVYLQMNSLRAEDTAVYFCARGARYRHDDYGALNLWGPGTLVTVSS VL: DIQMTQSPSTLSASVGDRVTITCQASQSVTNLLAWYQQKPGKPPKLLIYGASNLESGVPSRFSGSGSGTEFTLTISSLQPDDFATYYCQSGYYSANTFGPGTKVDIK | 0.56 | 4.34 | – | – | – | 0.56 | – | – | 0.52 | 0.89 | –
3 | 8E1 Hu/Ra (antibody, V domains shown) VH: QSVEESGGRLVTPGTPLTLTCTVSGFSLSSYAMGWVRQAPGKGLEFIGIISYSGNTYYASWAKGRFPISKTSSTTVDLKMTSPTTEDTANYFCARARYGGYSTNSYYLNIWGPGTLVTVSS VL: DVVMTQTPASVEAAVGGTVTINCQASENIYRVLAWYQQKPGQRPKLLIYGASNLESGVPSRFKGSGSGTDYTLTISDLECDDAATYYCQGVVYNSDDSAFGGGTEVVVKG | – | – | 1.02 | 0.33 | 1.82 | – | 1.59 | 0.54 | – | – | Kd [11]: 0.06 nM; Kd [12]: 0.43 nM; Kd [13]: 0.31 nM; Kd [14]: 2.76 nM
4 | humanized 38D5 hIgG1 variant LC.1 (P43A) (antibody, V domains shown) VH: EQQLLESGGGLVQPGGSLRLSCAASGIDFNNYGISWVRQAPGKGLEWIAYKYPGFGIRNYANSVKGRFTISSDNSKNTVYLQMNSLRAEDTAVYFCARGARYRHDDYGALNLWGPGTLVTVSS VL: DIQMTQSPSTLSASVGDRVTITCQASQSVTNLLAWYQQKPGKAPKLLIYGASNLESGVPSRFSGSGSGTEFTLTISSLQPDDFATYYCQSGYYSANTFGPGTKVDIK | – | – | – | – | – | – | – | – | 0.85 | 1.5 | –
5 | hENTPD3 (RT4 cells) (enzyme) MFTVLTRQPCEQAGLKALYRTPTIIALVVLLVSIVVLVSITVIQIHKQEVLPPGLKYGIVLDAGSSRTTVYVYQWPAEKENNTGVVSQTFKCSVKGSGISSYGNNPQDVPRAFEECMQKVKGQVPSHLHGSTPIHLGATAGMRLLRLQNETAANEVLESIQSYFKSQPFDFRGAQIISGQEEGVYGWITANYLMGNFLEKNLWHMWVHPHGVETTGALDLGGASTQISFVAGEKMDLNTSDIMQVSLYGYVYTLYTHSFQCYGRNEAEKKFLAMLLQNSPTKNHLTNPCYPRDYSISFTMGHVFDSLCTVDQRPESYNPNDVITFEGTGDPSLCKEKVASIFDFKACHDQETCSFDGVYQPKIKGPFVAFAGFYYTASALNLSGSFSLDTFNSSTWNFCSQNWSQLPLLLPKFDEVYARSYCFSANYIYHLFVNGYKFTEETWPQIHFEKEVGNSSIAWSLGYMLSLTNQIPAESPLIRLPIEPPVFVGTLAFFTAAALLCLAFLAYLCSATRRKRHSEHAFDHAVDSD | – | – | – | – | – | – | – | – | – | – | Kd (r3E9): 0.22 nM
